Test results taken from US20070202045A1 (published 2007).
Bridges are numbered along the chain shown (N, C = ends).

Target: T1, rabbit albumin (rabbit, UniProt P49065 25-608)
T1 chain: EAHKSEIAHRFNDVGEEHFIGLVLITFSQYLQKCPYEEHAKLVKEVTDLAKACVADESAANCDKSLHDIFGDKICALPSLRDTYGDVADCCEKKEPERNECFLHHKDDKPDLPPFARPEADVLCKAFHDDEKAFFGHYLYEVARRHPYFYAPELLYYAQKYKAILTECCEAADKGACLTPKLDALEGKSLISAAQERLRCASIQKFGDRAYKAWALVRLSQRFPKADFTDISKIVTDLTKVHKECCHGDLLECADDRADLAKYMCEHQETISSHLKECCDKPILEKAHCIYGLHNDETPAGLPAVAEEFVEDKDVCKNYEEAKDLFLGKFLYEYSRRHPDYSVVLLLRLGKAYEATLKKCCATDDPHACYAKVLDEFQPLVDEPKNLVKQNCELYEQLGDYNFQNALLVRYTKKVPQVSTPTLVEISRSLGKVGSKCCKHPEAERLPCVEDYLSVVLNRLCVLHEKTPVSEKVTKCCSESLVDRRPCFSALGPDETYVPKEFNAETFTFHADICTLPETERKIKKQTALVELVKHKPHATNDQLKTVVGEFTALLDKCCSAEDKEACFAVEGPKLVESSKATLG
Assay: competition ELISA (SA08b binding to rabbit albumin)

For Ac-QGLIGDICLPRWGCLWGDSVK-NH2 (disulfide 8-14 (inferred)) [SA08], the IC50 was 33 nM.
